Test [1] concerns the target highest binding amyloid (in vitro). In words: calculated from in vitro binding to amyloid, format not stated.
Test [2] shares this target. In words: in vitro binding to amyloid, format not stated.

As usually defined, the EC50 is the concentration giving half of the maximal effect.

B1: antibody having a heavy chain variable domain (VH) of SEQ ID NO:1 and a light chain variable domain (VL) of SEQ ID NO:2 (CAEL101) (antibody, IgG1, V domains shown)
VH: QVQLKESGPGLVAPSQSLSITCTVSGFSLSSYGVSWVRQPPGKGLEWLGVIWGDGSTNYHPNLMSRLSISKDISKSQVLFKLNSLQTDDTATYYCVTLDYWGQGTSVTVSS
VL: DVVMTQTPLSLPVSLGDQASISCRSSQSLVHRNGNTYLHWYLQKPGQSPKLLIYKVSNRFSGVPDRFSGSGSGTDFTLKISRVEAEDLGLYFCFQTTYVPNTFGGGTKLEIK
Consider B1, for which the Michaelis-Menton (MM) EC 90 (calculated) in test [1] was 36.5 µg/mL. This molecule also showed an EC50 in test [2] of 157 µg/mL.

The values above are taken from patent US20230364228A1.
